{"source": "the DeepSol protein solubility set"}
{"experiment": "soluble on expression in E. coli; label from the status in PepcDB or PDB records"}
{"sequence": "MGSDKIHHHHHHMYYEKAVQKTINWIESHLHEQISNEDIVNVSSFSKFHFHRIFQKEVGMSVASYIRLRRLANAAAALLYTDHRIIDIALYYQFESQEAFTRTFKKMYHMPPGAYRTFMKRFTSKKEESYMEKKMKGWVLSGSHPFQFEMGIDRENVHQGKASGYLKSTMVQDIGEFATMMQQFKADRYLGKRLRLSSFIKTKGVQHFASLWMRVDSAADDVLQFDNMSNRPITGTTNWNHYAIVLDVPENSAVISFGVQLSGPGQVWMDHVVFEEVDESVPSTNLEMPGELLDEPVNLSFEEELQK", "soluble on expression in E. coli": "not soluble"}
{"sequence": "GAMDGNMKEVTQLPEPQTASLAELQQMKLFLKLLKKQEKELKELERKGSKRREELLQKYSVLFLEPVYPRGLDSQVVELKERLEMELIHLGEEYHDGIRRRKEQHATEQTAKITELAREKQIAELKALKESSESNIKDIKKKLEAKRLDRIQVMMRSTSDKAAQERLKKEINNSHIQEVVQTIKLLTEKTARYQQKLEEKQAENLRAIQEKEGQLQQEAVAEYEEKLKTLTVEVQEMVKNYMKEVFPDGPE", "soluble on expression in E. coli": "soluble"}
{"sequence": "MSDPDLELASRREIYQRIADTPGVHFRALLDELKYAQGTLQYQLRWLADKGLIDVSDDGKYTRYYPAAEFDEADRTVMNALRREYSRRILAHLLTDSPLSTTELSERLDKAQSTVSWHLSKLAEADLVTKERDGRSVVYEVSDPDRVKYLYTVHRRSFTDKVVDRILGLWDSY", "soluble on expression in E. coli": "not soluble"}
{"sequence": "YSLAVGGSSPFAEELMQELALTTEQLQVRAQEVLTEILNDYSSLRVKTIDSFFQEVMRAFSHELGLPGGFRIEMEQKAVLEQAVVRLLHSLGEKDTSDVENWIRRLAEDLIEEGRGHNIRREIVSLGDELFKEQLLLLSEEGKLPTKAAIHRYQTEMNKLMEGFEQRRLSIARRAEEIVATAGISFYDFKGGTKGGILEFAKVLKGGEVKPPTKTFMAMAEGDPETTLYAKTTPATTQAAILSAYQSGLKECLTEMATLYLGREWQEYSTAKQSLPFLNRLGIISDLWRQIEGIRQEENKMLISDAPSLLHRIIDGSETPFVYDK", "soluble on expression in E. coli": "not soluble"}
{"sequence": "MSEVNKKVQDGVDDYLEEEDFGQLLEAFDKSREEATTEGVIVEIKNDEVYVDIGKKSEGILALSEIQGDNSKLLFNVGDSIKVAVMGSRGGRSLLSHKKALRKEKVIEFIKNYQENQDDIFTVKVVGKNKGGLIVVDENDVEFFLPKSQYGFKETNNIIGKTFKVKIIKIDKDEQSIIVSRKKTLDDERRKRKELINNVAQQEDLIEGIVKKITTYGMFVDVGGVDGLVHYSEISYKGPVNPGTLYKEGDKVPVKVIKYDKERKHLSLSIKAALPDPWSEIKDTLDIGDTIKVIVSNIEPYGAFVDLGNDIEGFLHISEISWDKNIKNPKDYINKGQEIDVEVIEINPNERRLRVSLRNLLSRPFDEFMKSYKIADVVEGEITSVTSFGAFVKLGGIEGLLHNEDASWDRNDKCKDKFSQGDKIKVKIIKIDEENQKISLSTKELSSSPVQEYAKIHKVGDIVKGAIRDIKDFGVFVELSKNVDALIHKEDISTSMLENLKIGDDIEAAIVFIDEKKNRIRLSVKNLVRIKEREVLNEINNDDKVTLGDIIKDQLALEHHHHHH", "soluble on expression in E. coli": "soluble"}
{"sequence": "NHYLQAEVVTAFLGLQHAAKRADFNLQPASTYRDFNRQMLIWNAKFNGKRKIHNDASKQIDITTLTDLAKIKAILRWSAVPGASRHHWGTEIDIFDPDLLPQGQHLQLEPWEYQSNGYFAPLIKWLHQHSASFGFYFPFDGIQNSQ", "soluble on expression in E. coli": "not soluble"}
{"sequence": "MSLKPSVVLNGDAITLGDIWENIGDKAGTPLANAPAPGKRITLETRWLMAVAQSYGIDWRPASPFERSVVERAGQSVDIRAIETELKEALSMEGAPAGASIEISNRQQLHIVIPATASPTVAVKDLAYDPRMNRFQAVVEAPAGAPNSVRFKVMGSVYASARIPVLAHAMGRGDVIREDDIQWVDVREEVVRRDIISNARMLVGQEPRYQLRAGVPVRTNEVQKPVVVAKNSSVTIMLRSKFMTLTAQGRAIEDGSVGDVIRVTNVQSKQTVDAKIEGPGQVSVMPGGLRTLANEGHHHHHH", "soluble on expression in E. coli": "not soluble"}
{"sequence": "MRFSNDHPFNQMRLKLTTELLLDLGSLKPEHIITPRIATDEELSLIHSYDYIQAIRRASHGILNLQEAKKYGLDGDDTLQFRRMHQHSARIVGGALNLADAIMDKSVKNGCHLGGGLHHSLPGRANGFCIYNDVAITIAYLIKHYNQRVLCIDTDAHHGDGTQWSFYTEDQALIYSIHETGKFLFPGSGHYTERGNEQGFGYTVNIPLEPYTEDSSYLEVFKQTIEPIIASFKPDIIVSVHGVDVHYLDPLTHMSCTLNTLYQIPYIIKSLADTYTNGKVMMFGGGGYNIWKVVPRAWSHVFLALIEAPPPLEHHHHHH", "soluble on expression in E. coli": "soluble"}
{"sequence": "GPGSMVLIECKRLPKDEYSKDYDVFLVSMPGSTNIGEATDALQKMRNTRVRIKWMCAAAKQLAKDFCSDEQKHHLLGAVEDAERYMAIERAENRQLCSQEDLDAHIAAFKGSAMILFPAECSGTDAVKRLALVLDDENTTDLERSKAHRLLSIIDDGAATEDILQGPAVMWWSGKPLDRNADFTKYVGKNEKTKITMKLAAKDAPPPPREPAVDAKTQSEMMAFYFKKQEEMKKLIEDEDLTYGNSAWADPRGLRSQLHGFDGVKYKPG", "soluble on expression in E. coli": "soluble"}
{"sequence": "MGSDKIHHHHHHMFKRETKDFINIDPLQTGGKLTEEARQALLEWGDGYSVCDFCTTGRLDEIKTPPIHDFIHNQLPKFLGCDVARVTNGAREAKFAVMHSLAKKDAWVVMDENCHYSSYVAAERAGLNIALVPKTDYPDYAITPENFAQTIEETKKRGEVVLALITYPDGNYGNLPDVKKIAKVCSEYDVPLLVNGAYAIGRMPVSLKEIGADFIVGSGHKSMAASGPIGVMGMKEEWAEIVLRRSEKYKNKEVELLGCTARGATIITLMASFPHVRERIKRWDEEVEKARRFAAEMEKLGIKQLGDNPHNHDLMFFHAEVLYEISKKAKGGRFFLYRELKSRKIHGIKPGLTRYFKLSTYGLSDEEVDYVLNAFKEIIEKYS", "soluble on expression in E. coli": "not soluble"}
{"sequence": "MRAFSFRPFFLQALVVMPEYVNWLRHASPYINAHRDCTFVVMLPGDGVAHPNFGNIVHDLVLLHSLGVRLVLVHGSRPQIESRLAQRGITPRYHRDMRITDTETLECVIDAVGQLRISIEARLSMDMAASPMQGSRLRVTSGNVVTARPIGVLEGIDYQHTGEVRRVDRKGINRLLDERHIVLLSPLGYSPTGEIFNLACEDVATRAAIDLAADKLLLFGAETGLLDEQGRLVRELRPQQVPAHLQRLGGNYQAELLDAAAEACRGGVARSHIVSYAEDGALLTELFTRDGGGTLVAQEQFELVREAAIEDVGGLMDLITPLEEQGILVRRSREVLEREITQFSVVEREGLIIACAALYPIADSESGELACLAVNPEYRHGGRGDELLERIENRARALGIKTLFVLTTRTAHWFRERGFEPSSVDRLPSARASLYNFQRNSKIFEKAI", "soluble on expression in E. coli": "not soluble"}
{"sequence": "MSNFLDLQKQRRSIYALGKTVDLSKAELVALIQNAIKQAPSAFNSQTSRALVLFGQDSQDFWNKIAYSELEKVTPAEAFAGTKAKLESFAAGVGTILLFEDQAVVRNLEENFPLYAENFQPWSEQAHGIALYAIWLALAEQNIGMSVQHYNPLVDAQVAEKYDLPTNWKMRAQIPFGSIEAPAGEKEFMADQERFKVFGDLEHHHHHH", "soluble on expression in E. coli": "soluble"}
{"sequence": "MGSDKIHHHHHHMSHLQTSNLPFKQRVDQQVHNEIMRKAVVNAQETIGQNRQKMVDELGHWEEWRDLSKQFRNHVLANLDAYLYQLSEKVKQNGGHVFFAETAEEATAYIRKVALAQKAKTIVKSKSMVTEEIGMNHVLEAEGINVVETDLGEYLLQIVGDKPSHIVVPAIHKDRHRIRKELHEKLGYTGSEQPEEMNAFVRKTLRKDFLNADIGISGCNFAVAETGSVCLVTNEGNLRLATTLPKTHIAVMGMERLAPTFKEVDALITMLCRSAVGAKLTAYNTWLTGPRLEGETDGPEDFHLVIVDNGRSKILASEFAEVLRCIRCGACLNTCPAYRQIGGHGYGSIYPGPIGAVISPLLGGYDEFKDLPYACSLCTACNSVCPVKIPLAQLILKHREKLVEEGRTPKGEQLAIKGFSFANSHPSLWGAGVKIGAKIAAKFIKNGKAPLQPGALGEWTKARDLPNPEGQSFREWFANRK", "soluble on expression in E. coli": "not soluble"}
{"sequence": "METAPDEAPTEFLEPGEEIVENVIEEEVVHEEDVEHHEEDGEMIEVQHEEVLEEIVEEDGMMFDTDGRVIEYSDVMVYEEGTEVIEEYVEVEDLGDGRYAYVMTDDIGHRRLLKPHEVEAVKKMPGMMEEEVVMDDEKAPNTSYAAAQKRGRFPPQARSSLSPQKPRAAGAYMGPEAYYQQPKRMTHMAKVDVEKYSPVTPVNRRPLMDNAIFKSKLPRKSAPWQEETAANGGPQSTSLIRSPSPMLKEPLFDDNEIRFKCAECGDGFPVMDRLCDHMIKQHDCQTNVREVQFFADRDFENFLLKVEKATLGRDPEDAIRKKSRAGSSQLFVCNYMNKGRQKMAELVEVGIVGLSERPLEVCTAFVQKTHGYECIRVKYCDQHIHYDGNIGFRVPIAVKRRLFEMSFKRLPIPCMQIMLGLEAEQLLPHPTRFEEKLKNLSHVEIIELLQIINASLRKHQEVEPRGKKVPIKFETIKSSEGSQTLMVKRVTPPKKEHMDYDEPDPNIPSTSAQALGYNPDDDEGDDVPMMSREEEVLDDETGEESVMTEDCDGMMEDNMCSFLVFFCWRKNGEK", "soluble on expression in E. coli": "not soluble"}
{"sequence": "AETSSATTAQQMPSLAPMLEKVMPSVVSINVEGSTTVNTPRMPRNFQQFFGDDSPFCQEGSPFQSSPFCQGGQGGNGGGQQQKFMALGSGVIIDADKGYVVTNNHVVDNATVIKVQLSDGRKFDAKMVGKDPRSDIALIQIQNPKNLTAIKMADSDALRVGDYTVAIGNPFGLGETVTSGIVSALGRSGLNAENYENFIQTDAAINRGNSGGALVNLNGELIGINTAILAPDGGNIGIGFAIPSNMVKNLTSQMVEYGQVKRGELGIMGTELNSELAKAMKVDAQRGAFVSQVLPNSSAAKAGIKAGDVITSLNGKPISSFAALRAQVGTMPVGSKLTLGLLRDGKQVNVNLELQQSSQNQVDSSSIFNGIEGAEMSNKGKDQGVVVNNVKTGTPAAQIGLKKGDVIIGANQQAVKNIAELRKVLDSKPSVLALNIQRGDSTIYLLMQ", "soluble on expression in E. coli": "soluble"}
{"sequence": "MSLRTLYSGGLVFDGIGNLLEQHGVLVDGQKICRIAPLGEFEGFSDEKVDTSDGTLLPGLIDCHVHIVYSGEADPKSHLLKLRPGQIVINALENAKKTLSNGITSIRDLGGRDFLEFAVRDACNSGRQTGPTIRAAGRMICMTGGHGNAFGRVADGPDEVLKAVREQIHAGSDVIKLMATGGVMTPGVNPEDAHYSEEELRVGVNEGHRFNRKCASHAQGSAGILNAVNAGMDSIEHGIFMTQESLESMLKHQTYLVPTLSAVNNIYLNRDNGIPEFIVEKTLRIRERHHQSIKMFYKAGGKMAMGTDAGTPFNLHGENTNELQYMVDLGVSNLDVLKISTVNAADLMDLEDRGIIQEGFYADFLIVNGDPVKDISKVADRKNHRIVVKNGVHINEGHHHHHH", "soluble on expression in E. coli": "soluble"}
{"sequence": "MSLEEAVDLSVLYVEDDELSRSGIFNALKRKVKNIHFAANGQEGLEVFKEHRPDVVITDIKMPLLNGLEMAKQILEMEPSVEIIVATAFEDAELFKRAIDLDVDKYLTKPLDVTQILMHLKRIEMQKRLEREFEVYSRALNEVASIFWFDLELECLKVNPRAIASGGEHGVENEKLKEMARLALEKGGRHQEGNKIFSVAFNVAKEPKGFCLCVMESMEEGHHHHHH", "soluble on expression in E. coli": "soluble"}
{"sequence": "HMSFSHVCQVGDPVLRGVAAPVERAQLGGPELQRLTQRLVQVMRRRRCVGLSAPQLGVPRQVLALELPEALCRECPPRQRALRQMEPFPLRVFVNPSLRVLDSRLVTFPEGCESVAGFLACVPRFQAVQISGLDPNGEQVVWQASGWAARIIQHEMDHLQGCLFIDKMDSRTFTNVYWMKVND", "soluble on expression in E. coli": "soluble"}
